Tests used:
Conditions in all cases: protein: recombinant; tags: N-terminal His6; chain copies: 2; cyclic; no ends
[1] = biological target: T1, Csa3Sso E122A (Saccharolobus solfataricus P2, UniProt Q97Y88 1-237, E122A); assay: MST; MST buffer not given in the material; Cy5 EMSA: 50 nM probe, 0.5-25 uM protein, 5% acrylamide TBE, 4 C; agarose EMSA: 2% TBE, room temperature; crystals: 20 mM
T1 sequence: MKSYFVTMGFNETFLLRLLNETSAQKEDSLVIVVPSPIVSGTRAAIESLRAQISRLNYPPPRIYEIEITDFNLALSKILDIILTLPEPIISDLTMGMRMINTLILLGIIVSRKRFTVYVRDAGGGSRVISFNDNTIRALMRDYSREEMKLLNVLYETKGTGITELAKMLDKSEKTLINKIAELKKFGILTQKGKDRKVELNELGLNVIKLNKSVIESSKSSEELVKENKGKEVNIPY

[2] = biological target: T2, Csa3Sso E122Q (Saccharolobus solfataricus P2, UniProt Q97Y88 1-237, E122Q); assay: as above
T2 sequence: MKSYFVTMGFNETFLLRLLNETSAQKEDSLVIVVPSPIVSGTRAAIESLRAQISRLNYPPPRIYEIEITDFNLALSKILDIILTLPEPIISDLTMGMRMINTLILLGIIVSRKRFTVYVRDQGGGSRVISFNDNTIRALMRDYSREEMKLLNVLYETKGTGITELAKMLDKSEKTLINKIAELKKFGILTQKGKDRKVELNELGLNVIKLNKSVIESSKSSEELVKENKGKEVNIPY

[3] = biological target: T3, Csa3Sso R98A (Saccharolobus solfataricus P2, UniProt Q97Y88 1-237, R98A); assay: MST; nonspecific signal at high cA4 only; MST buffer not given in the material; Cy5 EMSA: 50 nM probe, 0.5-25 uM protein, 5% acrylamide TBE, 4 C; agarose EMSA: 2% TBE, room temperature; crystals: 20 mM
T3 sequence: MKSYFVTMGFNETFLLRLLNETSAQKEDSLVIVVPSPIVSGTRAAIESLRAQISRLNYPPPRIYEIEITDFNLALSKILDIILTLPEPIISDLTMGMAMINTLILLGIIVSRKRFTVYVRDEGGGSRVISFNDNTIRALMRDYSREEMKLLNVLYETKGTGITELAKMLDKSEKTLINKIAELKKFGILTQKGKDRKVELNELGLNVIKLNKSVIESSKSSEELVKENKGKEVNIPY

[4] = biological target: T4, Csa3Sso F10A (Saccharolobus solfataricus P2, UniProt Q97Y88 1-237, F10A); assay: as above
T4 sequence: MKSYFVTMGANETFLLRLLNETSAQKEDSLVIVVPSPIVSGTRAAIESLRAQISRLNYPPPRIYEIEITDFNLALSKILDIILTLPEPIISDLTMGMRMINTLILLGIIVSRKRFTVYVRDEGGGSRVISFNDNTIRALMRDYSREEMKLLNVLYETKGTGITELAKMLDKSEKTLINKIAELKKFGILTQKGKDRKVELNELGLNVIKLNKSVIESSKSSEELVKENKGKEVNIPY

[5] = biological target: T5, Csa3Sso F14A (Saccharolobus solfataricus P2, UniProt Q97Y88 1-237, F14A); assay: as above
T5 sequence: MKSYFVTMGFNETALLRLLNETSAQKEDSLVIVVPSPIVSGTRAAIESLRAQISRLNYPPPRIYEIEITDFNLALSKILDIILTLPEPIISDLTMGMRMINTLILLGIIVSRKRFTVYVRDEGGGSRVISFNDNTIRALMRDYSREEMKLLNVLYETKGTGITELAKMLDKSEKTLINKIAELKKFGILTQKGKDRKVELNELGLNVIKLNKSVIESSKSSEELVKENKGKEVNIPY

[6] = biological target: T6, Csa3Sso G96A (Saccharolobus solfataricus P2, UniProt Q97Y88 1-237, G96A); assay: as above
T6 sequence: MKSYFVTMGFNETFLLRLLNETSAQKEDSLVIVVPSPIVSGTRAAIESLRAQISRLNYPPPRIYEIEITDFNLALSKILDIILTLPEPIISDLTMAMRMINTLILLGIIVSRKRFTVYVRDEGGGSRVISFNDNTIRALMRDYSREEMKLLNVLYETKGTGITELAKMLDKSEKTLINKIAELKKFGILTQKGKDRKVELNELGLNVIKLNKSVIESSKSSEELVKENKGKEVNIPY

B1: cA4 (ssRNA)
RNA: AAAA
modifications: cyclic, 3'-5' linked tetra-adenylate (CHEBI:142457)
B1 was tested, and the Kd [1] was 38.3 nM, the Kd [2] was 44.5 nM and the binding result [3] was “no binding”. B1: no binding [4]; no binding [5]; no binding [6].
